Assay results reported in patent US20230372448A1, “THERAPEUTIC USE OF LONG-ACTING CONJUGATE OF TRIPLE AGONIST ACTING ON ALL OF GLUCAGON, GLP-1 AND GIP RECEPTORS AGAINST MULTIPLE SCLEROSIS” (HANMI PHARM. CO. ,LTD., priority 2020, published 2023).
Positions of bridges follow the written chain, without caps; N, C: chain ends. Non-standard residues stand in square brackets, D forms with d. No end group written: not given here. *: point of attachment. Acetyl(2-(4-imidazolyl)) = O=C(Cc1c[nH]cn1)*; Aib = CC(C)(N)C(=O)O

T1: human GIP receptor (human, UniProt P48546 22-466)
T1 sequence (looked up): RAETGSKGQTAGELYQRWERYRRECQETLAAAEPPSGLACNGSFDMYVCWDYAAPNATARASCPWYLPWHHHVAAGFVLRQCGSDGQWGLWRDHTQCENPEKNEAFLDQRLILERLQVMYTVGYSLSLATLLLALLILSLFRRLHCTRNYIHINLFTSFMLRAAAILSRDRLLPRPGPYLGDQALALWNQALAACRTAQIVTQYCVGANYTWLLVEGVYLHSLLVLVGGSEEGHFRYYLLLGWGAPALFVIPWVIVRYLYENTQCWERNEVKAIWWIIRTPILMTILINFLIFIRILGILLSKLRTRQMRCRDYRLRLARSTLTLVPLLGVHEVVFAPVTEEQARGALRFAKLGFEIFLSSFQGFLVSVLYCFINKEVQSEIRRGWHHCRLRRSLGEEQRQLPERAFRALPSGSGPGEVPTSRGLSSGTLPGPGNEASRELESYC


Experiments:
Experiment in all cases: cell-based or functional assay
[1] = biological target: human GLP-1 receptor (human, UniProt P43220 24-463)
[2] = biological target: T1, human GIP receptor
[3] = biological target: human GCG receptor (human, UniProt P47871 26-477)
human GCG receptor, sequence (P47871 26-477): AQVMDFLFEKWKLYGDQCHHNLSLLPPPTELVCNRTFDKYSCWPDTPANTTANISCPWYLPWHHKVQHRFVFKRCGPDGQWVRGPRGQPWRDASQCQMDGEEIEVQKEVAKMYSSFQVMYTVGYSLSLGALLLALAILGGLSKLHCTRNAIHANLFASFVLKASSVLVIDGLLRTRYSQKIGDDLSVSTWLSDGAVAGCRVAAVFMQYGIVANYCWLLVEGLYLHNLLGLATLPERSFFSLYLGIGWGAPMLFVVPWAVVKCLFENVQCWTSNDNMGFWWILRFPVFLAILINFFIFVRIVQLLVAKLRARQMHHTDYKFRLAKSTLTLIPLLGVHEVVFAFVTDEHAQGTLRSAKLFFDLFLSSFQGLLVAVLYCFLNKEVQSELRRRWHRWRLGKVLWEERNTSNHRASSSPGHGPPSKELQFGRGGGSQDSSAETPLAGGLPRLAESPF

| Binder | In vitro activity (%) compared with native peptide: vs GLP-1 [1] [%] | In vitro activity (%) compared with native peptide: vs GIP [2] [%] | In vitro activity (%) compared with native peptide: vs Glucagon [3] [%] |
| --- | --- | --- | --- |
| Y[Aib]QGTFTSDYSKCLDEKRAKDFVQWLLDHHPSSGQPPPS (bridge 16-20; not fully specified) [triple agonist of SEQ ID NO: 70] | 15.1 | 64.4 | 71.3 |
| Y[Aib]QGTFTSDYSKCLDEKAAKEFVQWLLDHHPSSGQPPPS (bridge 16-20; not fully specified) [triple agonist of SEQ ID NO: 68] | 27.9 | 107 | 8.8 |
| H[Aib]QGTFTSDYSKCLDEKRAKEFVQWLLDHHPSSGQPPPS (bridge 16-20; not fully specified) [triple agonist of SEQ ID NO: 65] | 95.4 | 11.6 | 25.2 |
| Y[Aib]QGTFTSDYSKYLDECAAKEFVQWLLDHHPSSGQPPPS (bridge 16-20; not fully specified) [triple agonist of SEQ ID NO: 64] | 64.6 | 92.9 | 60.1 |
| H[Aib]QGTFTSDVSKYLDGQAAKEFVAWLLKGC (not fully specified) [triple agonist of SEQ ID NO: 7] | 13.7 | < 0.1 | < 0.1 |
| Y[Aib]QGTFTSDYSKYLDERACKDFVQWLLDHHPSSGQPPPS (bridge 16-20; not fully specified) [triple agonist of SEQ ID NO: 71] | 90.1 | 94.7 | 12.7 |
| {Acetyl(2-(4-imidazolyl))}-[Aib]QGTFTSDCSKYLDERAAQDFVQWLLDGGPSSGAPPPS (not fully specified) [triple agonist of SEQ ID NO: 63] | 15.3 | < 0.1 | < 0.1 |
| Y[Aib]QGTFTSDYSKCLDERAAKEFVQWLLDHHPSSGQPPPS (bridge 16-20; not fully specified) [triple agonist of SEQ ID NO: 69] | 24.3 | 62.8 | 9.6 |
| Y[Aib]QGTFTSDYSKYLDECAAKDFVQWLLDHHPSSGQPPPS (bridge 16-20) [triple agonist of SEQ ID NO: 67] | 28.5 | 39.8 | 46.2 |
| Y[Aib]QGTFTSDYSKYLDECRAKDFVQWLLDHHPSSGQPPPS (bridge 16-20; not fully specified) [triple agonist of SEQ ID NO: 66] | 15.8 | 17.2 | 172 |
